From article PMC2661964, “Mammalian Kinesin-3 Motors Are Dimeric In Vivo and Move by Processive Motility upon Release of Autoinhibition” (PLoS Biology, 2009)

B1: mCit-KIF1A (natural protein, rat, UniProt F1M4A4 1-1707, looked up)
chain: MAGASVKVAVRVRPFNSREMSRDSKCIIQMSGSTTTIVNPKQPKETPKSFSFDYSYWSHTSPEDINYASQKQVYRDIGEEMLQHAFEGYNVCIFAYGQTGAGKSYTMMGKQEKDQQGIIPQLCEDLFSRINDTTNDNMSYSVEVSYMEIYCERVRDLLNPKNKGNLRVREHPLLGPYVEDLSKLAVTSYNDIQDLMDSGNKARTVAATNMNETSSRSHAVFNIIFTQKRHDAETNITTEKVSKISLVDLAGSERADSTGAKGTRLKEGANINKSLTTLGKVISALAEMDSGPNKNKKKKKTDFIPYRDSVLTWLLRENLGGNSRTAMVAALSPADINYDETLSTLRYADRAKQIRCNAIINEDPNNKLIRELKDEVTRLRDLLYAQGLGDITDTNTVPGGPKLTNALVGMSPSSSLSALSSRAASVSSLHERILFAPGSEEAIERLKETEKIIAELNETWEEKLRRTEAIRMEREALLAEMGVAMREDGGTLGVFSPKKTPHLVNLNEDPLMSECLLYYIKDGVTRVGREDAERRQDIVLSGHFIKEEHCIFRSDSRGGGEAVVTLEPCEGADTYVNGKKVTEPSILRSGNRIIMGKSHVFRFNHPEQARQERERTPCAETPAEPVDWAFAQRELLEKQGIDMKQEMEQRLQELEDQYRREREEATYLLEQQRLDYESKLEALQKQMDSRYYPEVNEEEEEPEDEVQWTERECELALWAFRKWKWYQFTSLRDLLWGNAIFLKEANAISVELKKKVQFQFVLLTDTLYSPLPPDLLPPEAAKDRETRPFPRTIVAVEVQDQKNGATHYWTLEKLRQRLDLMREMYDRAAEVPSSVVEDCDNVVTGGDPFYDRFPWFRLVGRAFVYLSNLLYPVPLVHRVAIVSEKGEVKGFLRVAVQAISADEEAPDYGSGVRQSGTAKISFDDQHFEKFQSESCPVVGMSRSGTSQEELRIVEGQGQGADAGPSADEVNNNTCSAVPPEGLLDSPEKAALDGPLDTALDHLRLGSTFTFRVTVLQASSISAEYADIFCQFNFIHRHDEAFSTEPLKNTGRGPPLGFYHVQNIAVEVTKSFIEYIKSQPIVFEVFGHYQQHPFPPLCKDVLSPLRPSRRHFPRVMPLSKPVPATKLSTMTRPSPGPCHCKYDLLVYFEICELEANGDYIPAVVDHRGGMPCMGTFLLHQGIQRRITVTLLHETGSHIRWKEVRELVVGRIRNTPETDEALIDPNILSLNILSSGYVHPAQDDRQFLDSDIPRTFYQFEAAWDSSMHNSLLLNRVTPYREKIYMTLSAYIEMENCTQPAVITKDFCMVFYSRDAKLPASRSIRNLFGSGSLRATEGNRVTGVYELSLCHVADAGSPGMQRRRRRVLDTSVAYVRGEENLAGWRPRSDSLILDHQWELEKLSLLQEVEKTRHYLLLREKLETTQRPVPEVLSPASSEDSESRSSSGASSPLSAEGQPSPLEVPNERQRELAVKCLRLLMHTFNREYTHSHVCISASESKLSEMSVTLMRDPSMSPLGAATLTPSSTCPSLIEGRYGATDVRTPQPCSRPASPEPELLPELDSKKTPSPVRATETEKEPQRLLVPDIQEIRVSPIVSKKGYLHFLEPHTAGWAKRFVVVRRPYAYMYNSDKDTVERFVLNLSTAQVEYSEDQQAMLKTPNTFAVCTEHRGILLQANSDKDMHDWLYAFNPLLAGTIRSKLSRRRSAQMRV
notes: KIF1A (Kinesin-3 motor), rat, full length; also called mCit-tagged KIF1A; FL KIF1A; source: COS cells, transfected; in lysate and in live cells; not shown: mCit (monomeric citrine), N-terminal, kept
B2: Myc-KIF1A (natural protein, rat, UniProt F1M4A4 1-1707, looked up)
chain: B1 chain
notes: KIF1A (Kinesin-3 motor), rat, full length; Cloned into pRK5-Myc; also called Myc-tagged KIF1A; FL KIF1A; source: COS cells, transfected, in lysate
B3: KIF1A(1–726)-mCit (domain or fragment, rat, UniProt F1M4A4 1-726, looked up)
chain: MAGASVKVAVRVRPFNSREMSRDSKCIIQMSGSTTTIVNPKQPKETPKSFSFDYSYWSHTSPEDINYASQKQVYRDIGEEMLQHAFEGYNVCIFAYGQTGAGKSYTMMGKQEKDQQGIIPQLCEDLFSRINDTTNDNMSYSVEVSYMEIYCERVRDLLNPKNKGNLRVREHPLLGPYVEDLSKLAVTSYNDIQDLMDSGNKARTVAATNMNETSSRSHAVFNIIFTQKRHDAETNITTEKVSKISLVDLAGSERADSTGAKGTRLKEGANINKSLTTLGKVISALAEMDSGPNKNKKKKKTDFIPYRDSVLTWLLRENLGGNSRTAMVAALSPADINYDETLSTLRYADRAKQIRCNAIINEDPNNKLIRELKDEVTRLRDLLYAQGLGDITDTNTVPGGPKLTNALVGMSPSSSLSALSSRAASVSSLHERILFAPGSEEAIERLKETEKIIAELNETWEEKLRRTEAIRMEREALLAEMGVAMREDGGTLGVFSPKKTPHLVNLNEDPLMSECLLYYIKDGVTRVGREDAERRQDIVLSGHFIKEEHCIFRSDSRGGGEAVVTLEPCEGADTYVNGKKVTEPSILRSGNRIIMGKSHVFRFNHPEQARQERERTPCAETPAEPVDWAFAQRELLEKQGIDMKQEMEQRLQELEDQYRREREEATYLLEQQRLDYESKLEALQKQMDSRYYPEVNEEEEEPEDEVQWTERECELALWAFRKWKWY
notes: source: COS cells, transfected, in lysate; not shown: mCit (monomeric citrine), C-terminal, kept
B4: KIF1A(1–393)-mCit (domain or fragment, rat, UniProt F1M4A4 1-393, looked up)
chain: MAGASVKVAVRVRPFNSREMSRDSKCIIQMSGSTTTIVNPKQPKETPKSFSFDYSYWSHTSPEDINYASQKQVYRDIGEEMLQHAFEGYNVCIFAYGQTGAGKSYTMMGKQEKDQQGIIPQLCEDLFSRINDTTNDNMSYSVEVSYMEIYCERVRDLLNPKNKGNLRVREHPLLGPYVEDLSKLAVTSYNDIQDLMDSGNKARTVAATNMNETSSRSHAVFNIIFTQKRHDAETNITTEKVSKISLVDLAGSERADSTGAKGTRLKEGANINKSLTTLGKVISALAEMDSGPNKNKKKKKTDFIPYRDSVLTWLLRENLGGNSRTAMVAALSPADINYDETLSTLRYADRAKQIRCNAIINEDPNNKLIRELKDEVTRLRDLLYAQGLGDITD
notes: full NC and several residues of the hinge; Plasmid was a gift from Gary Banker; source: COS cells, transfected, in lysate; not shown: mCit (monomeric citrine), C-terminal, kept
B5: KIF1A-3xmCit (natural protein, rat, UniProt F1M4A4 1-1707, looked up)
chain: B1 chain
notes: KIF1A (Kinesin-3 motor), rat, full length; Vector 3xmCit-N1; also called FL; 3xmCit-tagged FL KIF1A; source: COS cells, transfected, in lysate
B6: KIF1A(1–726)-3xmCit (domain or fragment, rat, UniProt F1M4A4 1-726, looked up)
chain: B3 chain
notes: source: COS cells, transfected, in lysate
B7: KIF1A(1–393)-3xmCit (domain or fragment, rat, UniProt F1M4A4 1-393, looked up)
chain: B4 chain
notes: as for B6

Biological target: the molecule itself
Assay: cross-linking; lysates of transfected COS cells in borate buffer (50 mM NaBorate, 100 mM potassium acetate, 2 mM MgCl2, 1 mM EGTA, 1% Triton X-100, pH 8.57), 20 mM DMP for 30 min or untreated; SDS-PAGE, immunoblot

| Protein | stoichiometry N |
| --- | --- |
| B1 | ~2 |
| B2 | ~2 |
| B3 | 2 |
| B4 | 2 |

Biological target: the molecule itself
Assay: stepwise photobleaching of single molecules (TIRF microscopy); lysates of COS cells expressing 3xmCit-tagged constructs, in flow chambers with Cy5-microtubules, with AMPPNP; number of bleaching steps of 160–200 spots for each construct

| Protein | stoichiometry N |
| --- | --- |
| B5 | 2 |
| B6 | 2 |
| B7 | 2 |
